Measurements published in CN113999308A (SHENZHEN PEOPLES HOSPITAL, dated 2022).

Biological target: T1, CDH17蛋白细胞外段1~3结构域 (recombinant CDH17 extracellular domains 1-3) (human, UniProt Q12864 23-340, limits assumed)
T1 construct: domain: 细胞外段1~3 结构域; purified on Ni resin, so probably His-tagged, but the tag is not described; also called CDH17 1-3D; CDH17 1~3结构域蛋白
T1 sequence (looked up): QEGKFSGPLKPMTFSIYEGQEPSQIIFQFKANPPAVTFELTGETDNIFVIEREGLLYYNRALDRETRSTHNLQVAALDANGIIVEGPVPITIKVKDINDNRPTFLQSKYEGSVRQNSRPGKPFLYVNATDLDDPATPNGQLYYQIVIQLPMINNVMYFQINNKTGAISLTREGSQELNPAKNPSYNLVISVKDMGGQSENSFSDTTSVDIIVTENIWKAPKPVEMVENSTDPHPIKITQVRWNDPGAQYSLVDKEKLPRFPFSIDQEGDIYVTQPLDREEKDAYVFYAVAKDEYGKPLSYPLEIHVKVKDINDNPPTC
Test: SPR (Biacore), purified antigen on the chip, nanobody as analyte (Fig. 5E)

B1: Nb193纳米抗体 (Nb193 nanobody) (VHH)
VHH: AVQLVESGGGLVQAGGSLRLSCVASGSTLERYAVYWYRQPPGKERELVAGIMRGGNINYADSVKGRFTISKDYAKNTLILQMNSLKPEDTAVYYCNAGGSRFGYWGQGTQVTVSS
notes: From a naive alpaca phage display nanobody library; Expressed in E. coli with HA tag and His tag, about 15 kDa; the tag piece is put last only for want of better; not shown: HA tag and His tag fused to the nanobody (pET-14B, E. coli)
Kd: 17.6 nM
